Results published in the supplement of paper PMC7877785.
± gives the uncertainty stated by the source.

Experiment: self-splicing fitness, log relative to wild type (ln ratio); higher = more splicing; Tetrahymena group I intron in knt gene, E. coli kanamycin selection, DiMSum; sequences stand for … in CUCUCU…GGAGGGAAAAGUUAUCAGGCAUGCACCUGGUAGCUAGUCUUUAAACCAAUAGAUUGCAUCGGUUUAAAAGGCAAGACCGUCAAAUUGCGGGAAAGGGGUCAACAGCCGUUCAGUACCAAGUCUCAGGGGAAACUUUGAGAUGGCCUUGCAAAGGGUAUGGUAAUAAGCUGACGGACAUGGUCCUAACCACGCAGCCAAGUCCUAAGUCAACAGAUCUUCUGUUGAUAUGGAUGCAGUUCACAGACUAAAUGUCGGUCGGGGAAGAUGUAUUCUUCUCAUAAGAUAUAGUCGGACCUCUCCUUAAUGGGAGCUAGCGGAUGAAGUGAUGCAACACUGGAGCCGCUGGGAACUAAUUUGUAUGCGAAAGUAUAUUGAUUAGUUUUGGAGUACUCGUGGUCG
How it was run: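 Library with all eight P1ex-region intron nucleotides randomised, intron inside the knt kanamycin-resistance gene on pET-22b(+), in E. coli BL21(DE3). Cells grew overnight at 37°C or 30°C on LB agar with or without 25 μg/mL kanamycin (plus 100 μg/mL carbenicillin, 50 μM IPTG, 0.2% rhamnose), in six replicate transformations. Pooled colonies were amplicon-sequenced on Illumina HiSeq 2500. DiMSum fitness is the error-weighted combination of wild-type-normalised replicate fold changes, kanamycin versus none.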

Sequence	self-splicing fitness (ln) (30 °C)	self-splicing fitness (ln) (37 °C)
GCCUAGCAAUAUUACGAGGC	-4.1 ± 0.36	-1.77 ± 0.26
GAGCAGCAAUAUUACGAGUG	-2.8 ± 0.17	-1.09 ± 0.19
CGAUAGCAAUAUUACGCUUG	-2.88 ± 0.2	-1.04 ± 0.16
GCUGAGCAAUAUUACGCCGG	-1.99 ± 0.36	
GAACAGCAAUAUUACGAGAG	-3.49 ± 0.17	-1.83 ± 0.1
GAGAAGCAAUAUUACGUGAC	-2.18 ± 0.12	-1.29 ± 0.17
GUCGAGCAAUAUUACGAUAA	-1.44 ± 0.26	-0.0833 ± 0.2
ACUUAGCAAUAUUACGUCCA	-1.56 ± 0.2	-0.528 ± 0.2
CUCGAGCAAUAUUACGCUAA		-2.34 ± 0.36
UUGUAGCAAUAUUACGACCU	-1.39 ± 0.15	-0.134 ± 0.16
CGAGAGCAAUAUUACGACAU	-3.964 ± 0.034	-2.84 ± 0.046
AUAGAGCAAUAUUACGUGUA	-3.02 ± 0.18	-1.17 ± 0.16
AGAAAGCAAUAUUACGACUA	-0.244 ± 0.12	-0.42 ± 0.12
UGGUAGCAAUAUUACGGGUG	-1.26 ± 0.1	-0.609 ± 0.08
GUGCAGCAAUAUUACGAGAG	-2.23 ± 0.15	-2.42 ± 0.2
GGGCAGCAAUAUUACGCGAA	-0.567 ± 0.073	0.0161 ± 0.099
AAAUAGCAAUAUUACGCCAU	-3.75 ± 0.25	-2.36 ± 0.24
GCUGAGCAAUAUUACGGAGG	-3.67 ± 0.38	-1.14 ± 0.38
AUUUAGCAAUAUUACGAGCA	-1.66 ± 0.25	-1.01 ± 0.18
CUACAGCAAUAUUACGAUUA	-2.88 ± 0.16	-1.5 ± 0.15
AUCCAGCAAUAUUACGCAUC	-2.92 ± 0.18	-1.97 ± 0.14
AUCCAGCAAUAUUACGAGCU	-2.2 ± 0.096	-2.03 ± 0.17
UUUAAGCAAUAUUACGUACC	-2.05 ± 0.39	
UGAUAGCAAUAUUACGCUAA	-1.82 ± 0.2	-0.0947 ± 0.25
GUUGAGCAAUAUUACGCGCC	-2.97 ± 0.37	

Sequence	self-splicing fitness (ln) (30 °C)	self-splicing fitness (ln) (37 °C)
GAAUAGCAAUAUUACGGCUG	-0.443 ± 0.083	-0.941 ± 0.1
GGCCAGCAAUAUUACGCACC	-2.17 ± 0.12	-0.636 ± 0.14
CAAAAGCAAUAUUACGGUCC	-3.68 ± 0.29	-1.88 ± 0.21
UGACAGCAAUAUUACGCCCG	-0.421 ± 0.12	0.601 ± 0.2
GUGGAGCAAUAUUACGUGAU	-2.49 ± 0.12	-1.6 ± 0.12
AGUUAGCAAUAUUACGCCGG	-2.98 ± 0.34	-2.26 ± 0.39
AACGAGCAAUAUUACGAAUC	-3.96 ± 0.26	-2.5 ± 0.41
AAUCAGCAAUAUUACGGCGC	-0.736 ± 0.096	0.0282 ± 0.11
CCGUAGCAAUAUUACGGUAC	-3.37 ± 0.3	
UAUGAGCAAUAUUACGACUA	-0.118 ± 0.11	0.0355 ± 0.12
UGGUAGCAAUAUUACGUUAU	-3.29 ± 0.28	-3.33 ± 0.31
AUCGAGCAAUAUUACGUAUG	-3.84 ± 0.19	-4.4 ± 0.46
GCUAAGCAAUAUUACGCGGG	-3.54 ± 0.2	-0.902 ± 0.13
AUGUAGCAAUAUUACGCUGC	-2.72 ± 0.41	-2.69 ± 0.48
GCGAAGCAAUAUUACGUCGU	-3.79 ± 0.27	-2.6 ± 0.28
GAGUAGCAAUAUUACGAAUG	-3.18 ± 0.26	-1.89 ± 0.22
CGGAAGCAAUAUUACGAAUG	-0.506 ± 0.079	-0.137 ± 0.12
CCGGAGCAAUAUUACGUUAA	-2.42 ± 0.26	-1.93 ± 0.41
UCUAAGCAAUAUUACGAAAC		-2.6 ± 0.45
AAUGAGCAAUAUUACGAAGA	-2.8 ± 0.19	-2.91 ± 0.26
UAAUAGCAAUAUUACGGUUG	-0.0942 ± 0.085	-0.0839 ± 0.091
ACCCAGCAAUAUUACGCCGA	-1.26 ± 0.075	-1.14 ± 0.082
AACCAGCAAUAUUACGUGUA	-0.891 ± 0.041	-0.409 ± 0.049
CCGGAGCAAUAUUACGAGCA		-0.395 ± 0.25
GUCCAGCAAUAUUACGACGC	-0.776 ± 0.094	0.435 ± 0.12

Sequence	self-splicing fitness (ln) (30 °C)	self-splicing fitness (ln) (37 °C)
UCGGAGCAAUAUUACGUGCU		-2.66 ± 0.27
ACCGAGCAAUAUUACGAAUC	-4.8 ± 0.42	-2.61 ± 0.32
GCGUAGCAAUAUUACGCAUG		-2.21 ± 0.23
AGAAAGCAAUAUUACGGCGA	-0.0252 ± 0.17	-1.02 ± 0.14
CCUCAGCAAUAUUACGCAAG	-3.31 ± 0.17	-1.71 ± 0.14
AGGGAGCAAUAUUACGCCAC	-2.47 ± 0.49	
UCGGAGCAAUAUUACGUGAG	-1.65 ± 0.096	-1.01 ± 0.12
CACUAGCAAUAUUACGAGGU	-5.22 ± 0.45	-2.6 ± 0.23
CUUUAGCAAUAUUACGCCUG	-0.484 ± 0.11	-0.204 ± 0.14
AGCUAGCAAUAUUACGCCUC	-2.07 ± 0.34	-1.46 ± 0.37
CGCAAGCAAUAUUACGCACU	-0.441 ± 0.092	-0.325 ± 0.11
GAGUAGCAAUAUUACGCGGG	-3.59 ± 0.2	-2.55 ± 0.16
ACAGAGCAAUAUUACGGGGU	-4.03 ± 0.34	-2.39 ± 0.3
AACUAGCAAUAUUACGGAGC	-1.86 ± 0.15	-0.604 ± 0.15
UUGGAGCAAUAUUACGCGUA	-3.77 ± 0.28	-2.13 ± 0.23
UGGAAGCAAUAUUACGUAGA	-2.06 ± 0.13	-1.01 ± 0.13
AGACAGCAAUAUUACGCCAG	-4.58 ± 0.46	-3.27 ± 0.26
CACAAGCAAUAUUACGGUCA	-2.04 ± 0.1	-0.612 ± 0.1
GUGCAGCAAUAUUACGAGUC	-2.57 ± 0.1	-0.808 ± 0.099
GCGGAGCAAUAUUACGAAUC	-2.17 ± 0.44	
GGGCAGCAAUAUUACGGGGG	-3.44 ± 0.41	
CGGGAGCAAUAUUACGUUAU	-2.65 ± 0.26	-3.21 ± 0.47
AGUCAGCAAUAUUACGUCGC	-1.65 ± 0.13	-1.14 ± 0.19
AAGCAGCAAUAUUACGCAUG	-2.97 ± 0.2	-2.27 ± 0.2
GUUCAGCAAUAUUACGUAGG	-0.609 ± 0.082	0.163 ± 0.1

Sequence	self-splicing fitness (ln) (30 °C)	self-splicing fitness (ln) (37 °C)
CUUGAGCAAUAUUACGCAAU	-3.44 ± 0.32	-2.77 ± 0.38
UAGGAGCAAUAUUACGCACG	-2.12 ± 0.32	-0.819 ± 0.25
UUUAAGCAAUAUUACGGUGG	-0.86 ± 0.087	-0.646 ± 0.12
CAUAAGCAAUAUUACGGUUG	-2.47 ± 0.094	-1.59 ± 0.1
AGAAAGCAAUAUUACGCUCA	-0.775 ± 0.15	1.19 ± 0.18
AUAUAGCAAUAUUACGUACU	-0.531 ± 0.16	-0.188 ± 0.19
GAAAAGCAAUAUUACGAGAA	-3.21 ± 0.48	-1.11 ± 0.23
UUGUAGCAAUAUUACGUUAA	-1.71 ± 0.14	-2.31 ± 0.21
AACCAGCAAUAUUACGCUAG	-2.62 ± 0.082	-0.715 ± 0.08
GCAAAGCAAUAUUACGGACU	-0.621 ± 0.047	0.0957 ± 0.075
AAACAGCAAUAUUACGUCUU	-0.362 ± 0.054	0.322 ± 0.071
CGACAGCAAUAUUACGGCGU	-3.22 ± 0.088	-1.59 ± 0.074
ACUGAGCAAUAUUACGCUCU	-3.59 ± 0.2	-2.31 ± 0.24
UCGCAGCAAUAUUACGAGCA	-1.25 ± 0.23	-0.449 ± 0.27
CUAAAGCAAUAUUACGUAGC	-3.73 ± 0.2	-2.94 ± 0.37
CAGAAGCAAUAUUACGACUA	0.00435 ± 0.063	0.187 ± 0.081
UUCGAGCAAUAUUACGUCUC	-4.02 ± 0.47	-2 ± 0.16
AGGUAGCAAUAUUACGAGAA	-2.95 ± 0.05	-2.09 ± 0.047
UACUAGCAAUAUUACGGCGA	-0.849 ± 0.11	0.621 ± 0.13
AGGGAGCAAUAUUACGACUC	-1.2 ± 0.48	-1.92 ± 0.48
CCUAAGCAAUAUUACGCCCG	-2.22 ± 0.22	-0.795 ± 0.26
UUACAGCAAUAUUACGUUCC	-3.34 ± 0.26	-2.22 ± 0.46
UGCUAGCAAUAUUACGAACA	-0.29 ± 0.12	0.199 ± 0.13
GGCGAGCAAUAUUACGCGCG		-0.647 ± 0.18
